Reference: the supplement of paper PMC10065799, “High-throughput profiling of sequence recognition by tyrosine kinases and SH2 domains using bacterial peptide display” (eLife, 2023)

How the values were obtained:
FGFR1 = FGFR1 (UniProt P11362); experiment: phosphorylation enrichment, bacterial display (enrichment ratio); higher = better substrate or ligand; peptides without Tyr show the background
EPHB1 = EPHB1 (UniProt P54762); experiment: as above
AncSZ = experiment: as above
MERTK = MERTK (UniProt Q12866); experiment: as above
MERTK, sequence (Q12866 whole entry, looked up): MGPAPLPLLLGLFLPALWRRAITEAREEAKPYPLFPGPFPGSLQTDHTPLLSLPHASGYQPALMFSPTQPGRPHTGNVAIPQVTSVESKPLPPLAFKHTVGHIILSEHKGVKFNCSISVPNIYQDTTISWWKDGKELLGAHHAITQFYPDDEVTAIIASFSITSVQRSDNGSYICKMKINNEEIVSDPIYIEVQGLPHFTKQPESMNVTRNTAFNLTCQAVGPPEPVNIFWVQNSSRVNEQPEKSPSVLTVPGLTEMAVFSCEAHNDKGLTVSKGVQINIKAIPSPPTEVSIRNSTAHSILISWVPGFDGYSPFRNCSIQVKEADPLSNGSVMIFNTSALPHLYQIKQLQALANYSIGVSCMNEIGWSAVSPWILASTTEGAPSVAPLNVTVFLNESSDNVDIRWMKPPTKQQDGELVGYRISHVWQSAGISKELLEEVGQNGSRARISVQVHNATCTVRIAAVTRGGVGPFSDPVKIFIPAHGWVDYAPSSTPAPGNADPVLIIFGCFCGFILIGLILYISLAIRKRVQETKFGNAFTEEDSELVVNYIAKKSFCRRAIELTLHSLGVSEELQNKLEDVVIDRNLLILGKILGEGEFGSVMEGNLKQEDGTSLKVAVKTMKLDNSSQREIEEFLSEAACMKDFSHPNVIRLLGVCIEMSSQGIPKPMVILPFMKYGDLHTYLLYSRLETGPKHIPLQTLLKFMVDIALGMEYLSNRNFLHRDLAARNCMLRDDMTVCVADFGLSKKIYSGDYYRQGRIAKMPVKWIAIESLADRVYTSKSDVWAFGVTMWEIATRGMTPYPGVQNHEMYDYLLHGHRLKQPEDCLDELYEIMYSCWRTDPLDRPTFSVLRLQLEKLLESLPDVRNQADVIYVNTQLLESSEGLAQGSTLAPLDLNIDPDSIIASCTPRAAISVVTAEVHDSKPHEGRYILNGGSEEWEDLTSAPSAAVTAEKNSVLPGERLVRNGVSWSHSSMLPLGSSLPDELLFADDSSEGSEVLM

Fyn = Fyn (UniProt P06241); experiment: as above
Fes = Fes (UniProt P07332); experiment: as above
Fes, sequence (P07332 whole entry, looked up): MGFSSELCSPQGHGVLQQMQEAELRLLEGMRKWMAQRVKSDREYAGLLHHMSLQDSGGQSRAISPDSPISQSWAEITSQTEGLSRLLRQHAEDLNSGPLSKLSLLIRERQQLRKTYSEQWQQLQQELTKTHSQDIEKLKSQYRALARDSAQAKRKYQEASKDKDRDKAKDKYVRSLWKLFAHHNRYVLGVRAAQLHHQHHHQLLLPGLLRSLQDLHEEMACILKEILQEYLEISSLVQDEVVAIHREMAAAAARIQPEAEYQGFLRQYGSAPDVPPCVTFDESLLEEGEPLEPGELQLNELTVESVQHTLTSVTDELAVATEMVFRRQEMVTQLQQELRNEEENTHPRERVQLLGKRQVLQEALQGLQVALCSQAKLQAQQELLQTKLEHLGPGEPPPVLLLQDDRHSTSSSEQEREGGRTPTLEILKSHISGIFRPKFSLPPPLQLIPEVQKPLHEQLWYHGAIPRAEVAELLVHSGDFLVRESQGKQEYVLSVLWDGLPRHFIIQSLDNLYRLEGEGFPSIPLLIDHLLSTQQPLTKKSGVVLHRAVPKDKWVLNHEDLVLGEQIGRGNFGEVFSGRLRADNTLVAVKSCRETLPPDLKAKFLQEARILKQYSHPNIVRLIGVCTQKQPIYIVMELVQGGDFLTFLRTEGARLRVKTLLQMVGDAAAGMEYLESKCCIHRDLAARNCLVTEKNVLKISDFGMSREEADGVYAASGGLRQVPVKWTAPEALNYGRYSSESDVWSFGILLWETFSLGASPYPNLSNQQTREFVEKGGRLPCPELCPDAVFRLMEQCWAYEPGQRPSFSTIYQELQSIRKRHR

c-Abl (mouse) = experiment: as above
Hck = Hck (UniProt P08631); experiment: as above
Jak2 = Jak2 (UniProt O60674); experiment: as above
Jak2, sequence (O60674 whole entry, looked up): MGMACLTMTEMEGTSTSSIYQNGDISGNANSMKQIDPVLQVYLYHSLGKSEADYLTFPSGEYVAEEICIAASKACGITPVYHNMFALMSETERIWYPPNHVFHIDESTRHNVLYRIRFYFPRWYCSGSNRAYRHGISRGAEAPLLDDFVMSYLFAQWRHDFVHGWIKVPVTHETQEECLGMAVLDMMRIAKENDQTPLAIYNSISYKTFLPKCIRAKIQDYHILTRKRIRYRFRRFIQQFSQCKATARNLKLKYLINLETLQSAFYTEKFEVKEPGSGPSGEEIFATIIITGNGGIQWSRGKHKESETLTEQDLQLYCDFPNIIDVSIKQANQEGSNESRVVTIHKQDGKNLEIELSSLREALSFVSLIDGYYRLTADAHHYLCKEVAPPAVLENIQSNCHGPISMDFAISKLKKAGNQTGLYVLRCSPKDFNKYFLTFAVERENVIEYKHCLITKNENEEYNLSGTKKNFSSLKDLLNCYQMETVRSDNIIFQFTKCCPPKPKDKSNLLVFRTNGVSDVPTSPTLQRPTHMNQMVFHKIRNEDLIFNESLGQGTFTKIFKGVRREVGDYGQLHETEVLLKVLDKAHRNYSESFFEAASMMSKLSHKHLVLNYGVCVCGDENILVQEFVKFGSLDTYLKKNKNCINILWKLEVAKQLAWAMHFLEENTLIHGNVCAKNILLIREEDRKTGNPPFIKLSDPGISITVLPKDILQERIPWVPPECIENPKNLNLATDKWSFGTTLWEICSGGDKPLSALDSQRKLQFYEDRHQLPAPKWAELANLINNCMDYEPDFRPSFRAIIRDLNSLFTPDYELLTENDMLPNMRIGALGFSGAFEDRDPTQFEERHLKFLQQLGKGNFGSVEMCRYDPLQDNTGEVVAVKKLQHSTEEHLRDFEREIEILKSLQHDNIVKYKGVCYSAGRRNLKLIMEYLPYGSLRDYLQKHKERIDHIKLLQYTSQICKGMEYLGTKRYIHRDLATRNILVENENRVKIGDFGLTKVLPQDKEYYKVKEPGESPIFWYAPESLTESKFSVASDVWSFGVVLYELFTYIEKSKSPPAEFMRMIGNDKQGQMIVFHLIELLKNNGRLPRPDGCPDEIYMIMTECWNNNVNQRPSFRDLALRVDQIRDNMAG

EPHB2 = EPHB2 (UniProt P29323); experiment: as above
EPHB2, sequence (P29323 whole entry, looked up): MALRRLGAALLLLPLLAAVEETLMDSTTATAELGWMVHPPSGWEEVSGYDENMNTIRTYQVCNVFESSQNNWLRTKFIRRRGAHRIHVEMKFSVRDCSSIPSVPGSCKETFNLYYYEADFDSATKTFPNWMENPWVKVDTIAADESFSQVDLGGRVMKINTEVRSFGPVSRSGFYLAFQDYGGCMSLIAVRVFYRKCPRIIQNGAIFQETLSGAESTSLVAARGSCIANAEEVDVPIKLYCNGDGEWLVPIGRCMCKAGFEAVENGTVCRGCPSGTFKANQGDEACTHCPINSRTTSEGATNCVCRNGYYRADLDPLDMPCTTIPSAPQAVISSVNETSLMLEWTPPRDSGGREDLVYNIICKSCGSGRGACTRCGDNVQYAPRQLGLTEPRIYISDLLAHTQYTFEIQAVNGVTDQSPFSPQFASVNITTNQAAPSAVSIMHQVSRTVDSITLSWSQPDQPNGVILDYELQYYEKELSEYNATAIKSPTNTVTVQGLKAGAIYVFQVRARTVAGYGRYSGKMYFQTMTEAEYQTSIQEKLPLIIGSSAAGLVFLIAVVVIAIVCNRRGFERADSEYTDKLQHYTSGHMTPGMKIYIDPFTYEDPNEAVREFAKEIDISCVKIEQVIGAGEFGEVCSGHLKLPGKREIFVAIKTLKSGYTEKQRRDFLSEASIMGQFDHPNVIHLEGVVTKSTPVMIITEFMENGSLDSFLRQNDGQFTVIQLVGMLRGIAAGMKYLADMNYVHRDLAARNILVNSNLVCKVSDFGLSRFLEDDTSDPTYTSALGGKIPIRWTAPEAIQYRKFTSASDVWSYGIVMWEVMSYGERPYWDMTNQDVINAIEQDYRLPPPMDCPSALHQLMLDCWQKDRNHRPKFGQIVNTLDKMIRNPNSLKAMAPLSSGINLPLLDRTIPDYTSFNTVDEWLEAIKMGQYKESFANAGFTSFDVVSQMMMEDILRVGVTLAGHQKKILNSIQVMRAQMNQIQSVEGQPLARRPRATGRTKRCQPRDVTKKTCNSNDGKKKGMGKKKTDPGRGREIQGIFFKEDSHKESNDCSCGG

Fer (mouse) = experiment: as above
c-Src = experiment: as above
FGFR3 = FGFR3 (UniProt P22607); experiment: as above
c-Src SH2 = experiment: SH2 binding enrichment of the phosphorylated peptide, bacterial display (enrichment ratio); higher = better substrate or ligand; peptides without Tyr show the background
SHP2-C SH2 = experiment: as above
Grb2 SH2 = Grb2 SH2 (UniProt P62993); experiment: as above
Grb2 SH2, sequence (P62993 whole entry, looked up, the tested form may be a part): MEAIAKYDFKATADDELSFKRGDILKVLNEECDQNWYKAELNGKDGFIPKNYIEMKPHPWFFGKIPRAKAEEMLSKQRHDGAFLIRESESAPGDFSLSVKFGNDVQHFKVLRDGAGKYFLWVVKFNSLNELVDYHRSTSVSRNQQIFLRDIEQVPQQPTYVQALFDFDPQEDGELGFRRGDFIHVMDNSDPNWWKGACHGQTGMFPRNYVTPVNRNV
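Wherever SH2 binding enrichment of the phosphorylated peptide, bacterial display is given: peptide library displayed on the E. coli surface as eCPX fusions, selected cells deep-sequenced, score is each peptide's frequency after selection divided by its frequency in the input.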
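Wherever phosphorylation enrichment, bacterial display is given: 11-residue human phosphosite peptides and single-mutation variants displayed on the E. coli surface, counted by deep sequencing, each peptide's frequency after selection divided by its frequency in the unselected input library; frequency after pTyr selection over input frequency; kinase dosed for 20-30% of maximal phosphorylation in three min.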

FGFR1, sequence (P11362 whole entry, looked up): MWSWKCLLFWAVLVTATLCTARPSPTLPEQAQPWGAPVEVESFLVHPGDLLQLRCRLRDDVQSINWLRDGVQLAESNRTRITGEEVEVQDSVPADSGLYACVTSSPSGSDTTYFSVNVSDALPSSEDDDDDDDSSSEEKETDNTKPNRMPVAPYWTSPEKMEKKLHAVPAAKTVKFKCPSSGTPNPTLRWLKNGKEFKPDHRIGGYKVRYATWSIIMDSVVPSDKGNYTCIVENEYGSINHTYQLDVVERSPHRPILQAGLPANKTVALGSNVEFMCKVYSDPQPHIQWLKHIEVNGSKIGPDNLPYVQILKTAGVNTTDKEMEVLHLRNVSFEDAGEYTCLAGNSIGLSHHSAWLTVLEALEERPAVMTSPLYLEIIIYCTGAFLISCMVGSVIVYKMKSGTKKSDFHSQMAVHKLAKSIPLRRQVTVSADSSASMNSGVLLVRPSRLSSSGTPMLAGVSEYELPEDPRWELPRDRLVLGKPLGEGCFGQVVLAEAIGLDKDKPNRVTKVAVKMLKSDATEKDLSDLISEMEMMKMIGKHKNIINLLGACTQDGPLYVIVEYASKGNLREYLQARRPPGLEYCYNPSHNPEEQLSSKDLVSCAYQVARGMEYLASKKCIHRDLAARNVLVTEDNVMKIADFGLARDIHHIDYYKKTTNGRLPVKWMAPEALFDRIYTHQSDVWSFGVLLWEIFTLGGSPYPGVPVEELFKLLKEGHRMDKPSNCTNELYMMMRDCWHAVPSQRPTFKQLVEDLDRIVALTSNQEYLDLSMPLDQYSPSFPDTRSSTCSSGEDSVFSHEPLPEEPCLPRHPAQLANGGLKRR

Sequence	phosphorylation enrichment (FGFR1)	phosphorylation enrichment (EPHB1)	phosphorylation enrichment (AncSZ)	phosphorylation enrichment (MERTK)	phosphorylation enrichment (Fyn)	phosphorylation enrichment (Fes)	phosphorylation enrichment (c-Abl (mouse))	phosphorylation enrichment (Hck)	phosphorylation enrichment (Jak2)	phosphorylation enrichment (EPHB2)	phosphorylation enrichment (Fer (mouse))	phosphorylation enrichment (c-Src)	phosphorylation enrichment (FGFR3)	SH2 binding enrichment (c-Src SH2)	SH2 binding enrichment (SHP2-C SH2)	SH2 binding enrichment (Grb2 SH2)
TLSGIYQFNIA [FOXL2_Y81_I84N_YF]	0.543	0.76	0.891	5.39	4.21	0.741	0.676	2.98	0.696	0.555	7.33	4.73	0.539	0.742	0.971	1
PAIFTYDEFKK [COL8A2_Y648_T645I_YF]	0.374	0.398	1.47	0.594	0.952	1.11	1.03	1.66	1.12	0.359	0.304	3	0.501	0.509	0.888	0.829
IMVFVYSRVFQ [ADRB2_Y219]	0.445	0.554	0.961	0.448	0.445	1.16	0.844	0.435	0.93	0.484	0.487	0.486	0.786	0.591	0.794	1.12
FFVVRYCWLRR [MPZ_Y181_YF]	0.456	0.483	0.767	0.564	0.495	0.819	0.623	0.459	0.597	0.496	0.493	0.5	0.609	0.499	0.414	0.604
GYITSYREEEQ	0.595	0.677	1.29	0.442	0.554	1.37	0.879	0.543	1.15	0.659	0.616	0.463	0.711	0.49	0.573	0.646
MMVGAYSTLEG [ECPAS_Y470]	0.538	0.735	0.765	3.09	0.607	0.839	0.57	1.07	0.557	0.545	0.743	0.704	0.676	11.7	1.44	0.777
CPFNLYAEQLS [HGD_Y40_YF]	0.577	1.16	1.15	0.769	0.642	1.37	0.77	0.772	0.935	0.816	0.636	0.696	0.698	0.645	0.708	0.892
QGGRCYMMIVD [GAA_Y438_R437C]	0.815	1.35	2.31	0.928	0.87	2.69	1.81	0.769	2.11	1.29	0.948	1.03	1.83	0.957	0.674	0.696
RLLRGHDQSAF [HLA-C_Y137_Y137H_YF]	0.427	0.465	0.79	0.421	0.501	0.738	0.653	0.566	0.732	0.389	0.357	0.573	0.47	0.657	0.718	0.89
IGEGTYGVLFK [CDK2_Y15_V18L_YF]	0.38	1.1	0.85	1.48	8.03	0.997	0.708	6.57	0.702	1.73	0.673	5.31	0.606	0.387	0.8	0.882
MANFVYKAGPS [MAML2_Y515_M514V_YF]	0.517	0.436	0.681	0.371	0.423	0.65	0.417	0.499	0.477	0.553	0.39	0.365	0.469	0.66	0.825	1.01
RHPYFFAPELL [ALB_Y174_Y174F]	16.3	0.723	1.22	0.557	0.601	1.33	1.19	0.598	1.39	0.613	0.541	1.29	13.9	0.954	1.01	1.22
EARRVYGDIIF [ALDH5A1_Y175_H180Y_YF]	0.505	0.4	0.683	0.536	0.635	0.897	0.637	0.509	0.719	0.448	0.493	0.654	0.578	0.485	0.689	0.818
LSALDYKIFYY [WDPCP_Y210]	0.816	0.634	1.18	0.365	0.511	1.18	0.787	0.499	1.29	0.602	0.404	0.495	0.928	0.956	0.868	1.03
KIPGRYYETGS [PAX2_Y72_L69P]	0.503	0.445	0.56	0.573	0.496	0.713	0.689	0.388	0.637	0.424	0.588	0.476	0.539	0.823	0.727	0.97
NPIGLYSAEIL [LDB3_Y202_T206I]	0.419	3	0.751	6.37	0.839	0.879	0.568	1.04	0.876	2.6	3.44	1.11	0.562	0.415	0.852	0.635
LRTAVYHEILI [CREBBP_Y1450]	16.7	1.97	3.59	7.48	7.22	3.73	2.77	7.29	3.67	1.85	14.4	12.5	12.1	3.56	0.858	0.86

Sequence	phosphorylation enrichment (FGFR1)	phosphorylation enrichment (EPHB1)	phosphorylation enrichment (AncSZ)	phosphorylation enrichment (MERTK)	phosphorylation enrichment (Fyn)	phosphorylation enrichment (Fes)	phosphorylation enrichment (c-Abl (mouse))	phosphorylation enrichment (Hck)	phosphorylation enrichment (Jak2)	phosphorylation enrichment (EPHB2)	phosphorylation enrichment (Fer (mouse))	phosphorylation enrichment (c-Src)	phosphorylation enrichment (FGFR3)	SH2 binding enrichment (c-Src SH2)	SH2 binding enrichment (SHP2-C SH2)	SH2 binding enrichment (Grb2 SH2)
RRAKGYPINLY [ITGB2_Y125_D128N]	0.814	0.707	0.762	0.623	0.963	0.932	0.535	0.912	0.693	0.853	0.656	0.7	0.605	0.484	0.55	0.764
DEDEEYEFMNR [ERBB3_Y1197_YF]	0.724	0.503	1.26	0.538	0.592	1.17	0.692	0.579	0.965	0.515	0.487	0.456	0.788	0.664	1.28	1.04
ANRNVYEVEPT [MEGF10_Y1075]	0.404	0.451	0.787	0.476	6.32	0.755	0.6	0.842	0.63	0.5	0.473	4	0.47	1.3	1.08	0.818
KEAQVYQAFKL [SUCLG2_Y343]	0.516	1.07	1.1	2.84	11.3	1.05	15.3	9.46	0.801	0.566	9.27	7.32	0.603	0.408	0.616	0.858
QNVADYMRFLM [RPL5_Y207_YF]	0.871	1.79	1.73	0.814	1.2	1.97	1.42	1.09	2.91	1.92	0.818	1.64	1.09	0.62	0.842	0.894
EQKKYYNAMKK [SCN5A_Y1495]	0.342	0.368	0.551	0.305	0.3	0.649	0.519	0.34	0.613	0.332	0.353	0.34	0.4	0.85	1.07	0.818
LTMAPYSSVSL [FAM81A_Y24]	0.498	0.412	0.628	0.556	0.536	0.618	0.511	0.495	0.518	0.45	6.06	0.897	0.488	2.72	1.82	0.691
GIVEDYRPTFF [ACVRL1_Y421_P424T_YF]	0.592	0.578	0.897	0.452	0.394	1.04	0.811	0.416	0.838	0.549	0.468	0.45	0.651	0.447	0.695	0.846
NKEAICSGFIR [SMCHD1_Y283_Y283C_YF]	0.496	0.448	0.693	0.455	0.39	0.952	0.741	0.501	0.802	0.398	0.467	0.451	0.53	0.5	0.664	0.827
SSMIDYKPLEK [MYOC_Y479_N480K]	0.377	0.357	0.562	0.441	0.434	0.538	0.459	0.413	0.495	0.421	0.322	0.384	0.425	0.476	0.565	1.19
DRLAVCIDRVR [LMNA_Y45_Y45C]	0.467	0.605	0.942	0.394	0.46	1.15	0.76	0.477	0.904	0.518	0.457	0.436	0.682	0.541	0.653	0.807
NDFGNYNQQPS [HNRNPA2B1_Y306]	0.589	0.691	0.764	0.478	0.596	0.85	0.74	0.504	0.788	0.604	0.472	0.505	0.493	0.382	0.66	0.915
KILGTYYETGS [PAX2_Y72_R71T]	1.85	0.66	0.875	1.01	0.769	0.936	0.592	0.818	0.653	0.641	0.466	1.29	1.61	1.23	0.822	1.02
REETTYLPLTS [ICAM3_Y527_S525T]	0.74	0.656	1.39	0.901	0.864	1.05	0.781	1.7	1.03	0.548	0.608	1.61	0.644	0.36	0.746	0.957
LSEEKYELKEG [TREM1_Y29_T25S]	0.592	0.712	1.54	0.449	0.574	1.4	0.875	0.513	1.18	0.628	0.627	0.489	0.835	0.391	0.603	0.713
KNEVFYQCPDQ [FBXO3_Y223]	1.26	1.04	3.2	3.49	1.03	1.55	7.94	1.69	0.941	2.03	6.47	0.985	1.49	0.526	0.523	0.783
